Test results published in patent US20210275686A1, “BINDER/ACTIVE AGENT CONJUGATES DIRECTED AGAINST CXCR5, HAVING ENZYMATICALLY CLEAVABLE LINKERS AND IMPROVED ACTIVITY PROFILE” (BAYER AKTIENGESELLSCHAFT, priority 2018, published 2021).
Where a chain is given by its changes, count along the chain named. One block for each molecule: values may come before it.

How the values were obtained:
[1] = system: NCI-H292: human mucoepidermoid lung cancer cells; test: Cytotoxic activity, MTT assay, NCI-H292; format: cell-based; details: metabolites, 96 h
Procedure: (§1) The culturing of the cells is performed according to the standard method, as specified at the American Tissue Culture Collection (ATCC) or the Leibniz-Institut DSMZ-Deutsche Sammlung von Mikroorganismen and Zellkulturen GmbH (DSMZ) for the respective cell lines.
(§2) The culturing of the cells was performed according to the standard method with the growth media specified under C-1. For execution, the cells were separated with a solution of Accutase in PBS (Biochrom AG #L2143), pelleted, resuspended in culture medium, counted and seeded on a 96-well culture plate with a white background (Costar #3610) (NCI H292: 2500 cells/well; in 100 μL total volume). Then the cells were incubated in an incubator at 37° C. and 5% carbon dioxide. After 48 h a change of medium was performed. […] The cells in the suspension were counted and seeded into a 96-well culture plate with white background (Costar #3610) (#3610) (Rec-1: 3000 cells/well at a total volume of 100 μL). […] After 96 h the cell proliferation was detected using the MTT assay (ATCC, Manassas, Va., USA, Catalog No. 30-1010K). […] The color formed was detected at 570 nm (Infinite M1000 pro, Tecan). Based on the measured data the IC50 of the growth inhibition was calculated using the DRC (dose-response curve). […]

[2] = target: T1, human kinesin spindle protein KSP/Eg5 (Homo sapiens, UniProt P52732); test: Inhibition of kinesin spindle protein KSP/Eg5 (ATPase, malachite green); format: biochemical; details: 10 nM KSP motor domain, microtubules, 500 μM ATP, 2 h RT
T1 construct: The motor domain of the human kinesin spindle protein KSP/Eg5; purchased tebu-bio/Cytoskeleton Inc 027EG01-XL
T1 sequence (P52732 18-359 limits assumed): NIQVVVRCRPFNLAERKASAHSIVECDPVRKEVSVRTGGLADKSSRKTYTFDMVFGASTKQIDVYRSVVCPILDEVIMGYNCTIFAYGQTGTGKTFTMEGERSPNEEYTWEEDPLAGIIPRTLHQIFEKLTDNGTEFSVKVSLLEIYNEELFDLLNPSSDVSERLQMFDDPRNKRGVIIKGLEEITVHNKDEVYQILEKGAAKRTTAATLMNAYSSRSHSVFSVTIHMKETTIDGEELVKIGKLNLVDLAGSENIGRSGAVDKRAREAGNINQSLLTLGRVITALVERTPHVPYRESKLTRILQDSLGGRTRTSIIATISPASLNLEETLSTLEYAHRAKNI

[3] = system: Rec-1: human mantle cell lymphoma cells; test: Cytotoxic activity, CTG assay, Rec-1; format: cell-based; details: Rec1, metabolites
Procedure: as §1
The cells were cultured using the standard method, with the growth media specified under C-1. To perform the test, the suspended cells were counted and seeded in a 96-well culture plate with a white background (Perkin Elmer, NO 10775584) (at 75 μL/well; the resulting cell numbers per well are: Rec-1: 3000 cells/well, HBL-1 and Oci-Ly-1: 6000 cells/well) and incubated in an incubator at 37° C. and 5% carbon dioxide. […] In a parallel plate, the cell vitality was determined at the beginning of the active agent treatment (day 0) with the Cell Titer Glow (CTG) Luminescent Cell Viability Assay (Promega #G7573 and #G7571). For this purpose, 100 μL of the substrate were added per cell batch; then the plates were covered with aluminum foil, shaken for 2 minutes at 180 rpm with the plate shaker, allowed to stand for 8 minutes on the laboratory bench and then measured with a luminometer (Victor X2, Perkin Elmer). The substrate detected the ATP content in the living cells, generating a luminescence signal whose height is directly proportional to the vitality of the cells. […]

[4] = system: Rec-1: human mantle cell lymphoma cells; test: Cytotoxic activity, MTT assay, Rec-1; format: cell-based; details: Rec1, metabolites, 96 h
Procedure: as §1, §2

legumain = target: T2, legumain (Homo sapiens, UniProt Q99538); test: Legumain assay; format: biochemical; details: recombinant human legumain (rhlegumain), 3 μM substrate, pH 5.0, read-out: half-life of legumain-mediated cleavage (converted)
T2 construct: purchased R&D Systems 2199-CY
T2 sequence (Q99538 26-323 limits assumed): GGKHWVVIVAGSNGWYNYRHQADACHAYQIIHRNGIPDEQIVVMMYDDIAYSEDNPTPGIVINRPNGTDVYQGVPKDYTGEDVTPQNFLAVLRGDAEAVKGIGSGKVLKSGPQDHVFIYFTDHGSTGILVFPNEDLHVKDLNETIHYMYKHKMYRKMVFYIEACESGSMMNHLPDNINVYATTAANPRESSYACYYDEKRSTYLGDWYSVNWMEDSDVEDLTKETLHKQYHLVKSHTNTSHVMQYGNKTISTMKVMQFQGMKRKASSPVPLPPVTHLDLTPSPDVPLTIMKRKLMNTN
Procedure: The legumain assay was performed with recombinant human enzyme. The rhlegumain enzyme solution (Catalog #2199-CY, R&D Systems) was diluted to the desired concentration in 50 mM Na acetate buffer/100 mM NaCl, pH4.0, and preincubated for 2 h at 37° C. The rhlegumain was then adjusted to a final concentration of […] in 50 mM MES buffer, 250 mM NaCl, pH 5.0. For each legumain-cleavable prodrug to be investigated, a reaction mixture was made up in a micro-reaction vessel (0.5 ml, Eppendorf). For this, the substrate solution was adjusted with 50 mM MES buffer, 250 mM NaCl, pH 5.0 to the desired concentration (2-fold concentration). For the kinetic measurement of the enzymatic reaction, first 250 μL of the legumain solution was taken and the enzymatic reaction was started by adding 250 μL of the substrate solution (final concentration, single concentration; 3 μM). Samples of 50 μL each were taken at various times. Immediately, 100 μL ice-cold methanol was added to the sample to stop the enzymatic reaction and then frozen at −20° C. The selected sampling times were after 0.5 h, 1 h, 3 h and 24 h. The samples were then examined by RP-HPLC analysis and by LC-MS. The determination of the toxophore released enabled the determination of the half-time t1/2 of the enzymatic reaction.

[5] = target: CXCR5 (CD185; SwissProt: P32302; NCBI reference sequence: NP_001707.1) (human) (UniProt P32302); test: cell-based or functional assay
[6] = target: T3, CXCR5 (CD185; SwissProt: P32302; NCBI reference sequence: NP_001707.1) (human, UniProt P32302 1-372); test: cell-based or functional assay
T3 sequence: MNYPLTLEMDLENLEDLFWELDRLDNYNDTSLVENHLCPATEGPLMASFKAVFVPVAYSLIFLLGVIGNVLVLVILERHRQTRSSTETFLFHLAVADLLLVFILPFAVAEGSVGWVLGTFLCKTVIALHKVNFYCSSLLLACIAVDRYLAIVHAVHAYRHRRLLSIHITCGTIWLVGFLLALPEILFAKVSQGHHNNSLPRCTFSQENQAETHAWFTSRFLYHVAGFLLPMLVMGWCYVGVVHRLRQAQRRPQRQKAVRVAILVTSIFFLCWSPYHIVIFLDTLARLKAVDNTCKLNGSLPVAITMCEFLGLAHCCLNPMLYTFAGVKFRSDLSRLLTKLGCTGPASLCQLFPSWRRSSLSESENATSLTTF

Molecule: CC(C)(C)[C@H](c1cc(-c2cc(F)ccc2F)cn1Cc1ccccc1)N(CCCN)C(=O)CO [Reference Example R1M, N-(3-Aminopropyl)-N-{(IR)-1-[1-benzyl-4-(2,5-difluorophenyl)-IH-pyrrol-2-yl]-2,2-dimethylpropyl}-2-hydroxyacetamide, reference compound]
IC50 [1]: 0.27 nM
IC50 [2]: 1.09 nM
IC50 [3]: 0.205 nM
IC50 [4]: 0.293 nM

Molecule: CC(C)(C)[C@H](c1cc(-c2cc(F)ccc2F)cn1Cc1ccccc1)N(CC[C@H](N)C(=O)NCCC(=O)N[C@H](CCC(=O)O)C(=O)O)C(=O)CO [Example M1, N-{(2S)-2-Amino-4-[{(1R)-1-[1-benzyl-4-(2,5-difluorophenyl)-1H-pyrrol-2-yl]-2,2-dimethylpropyl}(glycoloyl)amino]butanoyl}-beta-alanyl-D-glutamic acid]
IC50 [3]: 309 nM
IC50 [4]: 387 nM

Molecule: CNC(=O)[C@H](CCN(C(=O)CO)[C@@H](c1cc(-c2cc(F)ccc2F)cn1Cc1ccccc1)C(C)(C)C)NC(=O)[C@H](CC(N)=O)NC(=O)[C@H](C)N(C)C(=O)[C@H](C)NC(=O)Cc1ccncc1 [Model Compound A]
half-life at 3 µM (legumain): 30 min

Molecule: Isotype control (antibody)
Internalization Rec-1 [MFI] [5]: 2 MFI
Internalization SU-DHL-6 [MFI] [5]: 1 MFI

B1: TPP-14495 (antibody, human IgG1, lambda, V domains shown)
VH: EVQLLESGGGLVQPGGSLRLSCAASGFTFSNYWMSWVRQAPGKGLEWVSAISGSGGSTRYADSVKGRFTISRDNSKNTLYLQMNSLRAEDTAVYYCTTQRRELGATNWGQGTLVTVSS
VL: QSVLTQPPSASGTPGQRVTISCTGSSSNIGAGYVVHWYQQLPGTAPKLLIYSNNQRPSGVPDRFSGSKSGTSASLAISGLRSEDEADYYCQSYDSSLSGVVFGGGTKLTVLG
modifications: CypHer 5E fluorescent dye coupled to lysine residues (positions not stated)
Internalization Rec-1 [MFI] [6]: 84 MFI
Internalization SU-DHL-6 [MFI] [6]: 12 MFI

B7: TPP-10063 (antibody, human IgG1, lambda, V domains shown)
VH: B1 VH with R59Y, Q99L
VL: B1 VL
modifications: CypHer 5E fluorescent dye coupled to lysine residues (positions not stated)
Internalization Rec-1 [MFI] [6]: 65 MFI
Internalization SU-DHL-6 [MFI] [6]: 22 MFI

B8: 40C01 (antibody, human IgG1, kappa, V domains shown)
VH: EVQLLESGGGLVQPGGSLRLSCAASGFTFSRYVMVWVRQAPGKGLEWVSGISPSGGVTRYAASVKGRFTISRDNSKNTLYLQMNSLRAEDTAVYYCARIRKEMTTISYFFDYWGQGTLVTVSS
VL: DIQMTQSPSSLSASVGDRVTITCRASQGVDAYVAWYQQKPGKVPKLLIYSTSTLASGVPSRFSGSGSGTDFTLTISSLQPEDVATYYCQSHNAAVVTFGQGTRLEIKR
modifications: CypHer 5E fluorescent dye coupled to lysine residues (positions not stated)
Internalization Rec-1 [MFI] [6]: 49 MFI
Internalization SU-DHL-6 [MFI] [6]: 13 MFI

Further lines, results first:

Internalization Rec-1 [MFI] [6]: 122 MFI
Internalization SU-DHL-6 [MFI] [6]: 55 MFI
B2: TPP-14499 (antibody, human IgG1, lambda, V domains shown)
VH: B1 VH with M34G, R59Y, T98V, Q99L
VL: B1 VL
modifications: CypHer 5E fluorescent dye coupled to lysine residues (positions not stated)

Internalization Rec-1 [MFI] [6]: 135 MFI
Internalization SU-DHL-6 [MFI] [6]: 61 MFI
B3: TPP-14505 (antibody, human IgG1, lambda, V domains shown)
VH: B1 VH with Y32N, R59Y, T97N, T98V
VL: B1 VL
modifications: CypHer 5E fluorescent dye coupled to lysine residues (positions not stated)

Internalization Rec-1 [MFI] [6]: 134 MFI
Internalization SU-DHL-6 [MFI] [6]: 53 MFI
B4: TPP-14514 (antibody, human IgG1, lambda, V domains shown)
VH: B1 VH with Y32N, R59Y, T98V
VL: B1 VL
modifications: CypHer 5E fluorescent dye coupled to lysine residues (positions not stated)

Internalization Rec-1 [MFI] [6]: 129 MFI
Internalization SU-DHL-6 [MFI] [6]: 51 MFI
B5: TPP-14509 (antibody, human IgG1, lambda, V domains shown)
VH: B1 VH with R59Y, T98V
VL: B1 VL
modifications: CypHer 5E fluorescent dye coupled to lysine residues (positions not stated)

Internalization Rec-1 [MFI] [6]: 99 MFI
Internalization SU-DHL-6 [MFI] [6]: 24 MFI
B6: TPP-14511 (antibody, human IgG1, lambda, V domains shown)
VH: B1 VH with S57T, R59Y
VL: B1 VL
modifications: CypHer 5E fluorescent dye coupled to lysine residues (positions not stated)
